IFN-γ secretion levels and cytokine secretion (IFN-γ) data for four molecules are collected here from patent publication US20250319129A1.

Like-named read-outs stand apart in the source and are kept apart here. Where only a bound is given, the exact number is not on record here.

What all share (assay): cell-based or functional assay
For assay [1], the target named is CLDN18.2 (human), P56856.
Assay [2] concerns the target CLDN18.2 (human), P56856. This is another data set of the same source.
Assay [3] addresses CLDN18.1 (human) (UniProt P56856).

B1: 21047 chimeric antigen receptor (on CAR-T cells) (protein)
chain: QVQLVESGGGLVQPGGSLRLSCAASGSIFNIPVMGWYRQAPGKQRELVAGISTGGTTNYGDSVKGRFTISRDNAKNTVYLQMNSLKPEDTAVYYCNVLVVSGIGSTLEVWGQGTLVTVSSIEVMYPPPYLDNEKSNGTIIHVKGKHLCPSPLFPGPSKPFWVLVVVGGVLACYSLLVTVAFIIFWVRSKRSRLLHSDYMNMTPRRPGPTRKHYQPYAPPRDFAAYRSRVKFSRSADAPAYQQGQNQLYNELNLGRREEYDVLDKRRGRDPEMGGKPRRKNPQEGLYNELQKDKMAEAYSEIGMKGERRRGKGHDGLYQGLSTATKDTYDALHMQALPPR
On to B1, for which the IFN-γ secretion levels in assay [1] was over 10000 pg/mL; in assay [2], over 5000 pg/mL.

B2: 21050 chimeric antigen receptor (on CAR-T cells) (protein, part only; not given: hinge, transmembrane and signalling parts, part only)
chain, part: QVQLQQPGAELVRPGASVKLSCKASGYTFTSYWINWVKQRPGQGLEWIGNIYPSDSYTNYNQKFKDKATLTVDKSSSTAYMQLSSPTSEDSAVYYCTRSWRGNSFDYWGQGTTLTVSSGGGGSGGGGSGGGGSDIVMTQSPSSLTVTAGEKVTMSCKSSQSLLNSGNQKNYLTWYQQKPGQPPKLLIYWASTRESGVPDRFTGSGSGTDFTLTISSVQAEDLAVYYCQNDYSYPFTFGSGTKLEIK
As to B2, the cytokine secretion (IFN-γ) in assay [3] is under 100 µg/mL.

B3: 21009 chimeric antigen receptor (on CAR-T cells) (protein, part only; not given: hinge, transmembrane and signalling parts, part only)
chain, part: EVQVVESGGGLVQPGGSLRLSCAASGNIFRTDIGMWYRQAPGKGRELVAGTTTGRSGYVDKASIGRFTISRDNAKNTMYLQMNSLRAEDTAVYYCNAYGVWEQTPFDALRWGQGTLVTVSS
On to B3, for which the cytokine secretion (IFN-γ) in assay [3] was under 100 µg/mL.

B4: 21011 chimeric antigen receptor (on CAR-T cells) (protein, part only; not given: hinge, transmembrane and signalling parts, part only)
chain, part: EVQLVESGGGLVQPGGSLRLSCAASGSIFSVNGIMWYRQAPGKQRELVAARYTGSVIDSGKTGTGRFTISRDNAKNTLYLQMNSLRAEDTAVYYCNAPTAALTRVEWDVYSLWGQGTLVTVSS
The molecule B4 came in with a cytokine secretion (IFN-γ) in assay [3] of under 100 µg/mL.
